Experimental data from patent US20150191542A1 (INNATE PHARMA S A, published 2015).
Residue numbers refer to the chain shown, from its start. Each block holds one binder with its values, some of them ahead of it.

Assays:
[1] = biological target: T1, MICA*001 extracellular domain α3 recombinant protein (human, UniProt Q29983 205-297); assay: ELISA, 3 µg/ml recombinant protein coated
T1 construct: also called MICA extracellular domain α3 recombinant protein; α3 domain of MICA
T1 sequence: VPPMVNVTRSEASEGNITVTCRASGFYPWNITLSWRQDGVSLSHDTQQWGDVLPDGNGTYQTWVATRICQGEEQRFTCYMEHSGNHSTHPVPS
Experimental: 3 μg/ml of the indicated MICA recombinant proteins were coated overnight in 96-well plates in PBS 1× at 4° C. All subsequent steps were performed at room temperature. After washes with PBS 1×/Tween 0.05%, plates were saturated for an additional 2 hours in PBS 1×/BSA 1%. Two additional washes were performed prior adding the tested anti-MICA mAb in PBS 1×/BSA 1% for 2 hours. Antibodies were washed and a horseradish peroxidase conjugated goat polyclonal anti-mouse IgG (GAM-HRP) in PBS 1×/BSA 1% was added for 1 hour. Final washing steps were performed and TMB substrate was added to reveal the ELISA (5 to 20 min in the dark) and 1M HCl was added to stop the enzymatic reaction. O.D. was measured at 450 nm.
9C10 binds to MICA extracellular domain recombinant-protein but not MICA extracellular domain α3 recombinant protein. Antibody 16A8, however, bound to both MICA extracellular domain recombinant protein […] MICA extracellular domain α3 recombinant protein. Therefore, it can be concluded from this ELISA experiment that the binding site on MICA of 9C10 antibodies includes the α1 and/or α2 domains while antibody 16A8 binds to MICA within the α3 domain. […] BAMO1 is a commercially available anti-MICA specific for α1α2 domain and BAMO3 is a commercially available anti-MICA specific for α3 domain.

[2] = biological target: T2, MICA*004 expressed on C1R transfectant cells (human, UniProt Q29983 24-297, Glycosylated on cells; the letters do not carry this.); assay: flow cytometry, MFI against antibody concentration on C1R-MICA*04 cells
T2 construct: also called C1R-MICA*004; C1R-MICA*04
T2 chain: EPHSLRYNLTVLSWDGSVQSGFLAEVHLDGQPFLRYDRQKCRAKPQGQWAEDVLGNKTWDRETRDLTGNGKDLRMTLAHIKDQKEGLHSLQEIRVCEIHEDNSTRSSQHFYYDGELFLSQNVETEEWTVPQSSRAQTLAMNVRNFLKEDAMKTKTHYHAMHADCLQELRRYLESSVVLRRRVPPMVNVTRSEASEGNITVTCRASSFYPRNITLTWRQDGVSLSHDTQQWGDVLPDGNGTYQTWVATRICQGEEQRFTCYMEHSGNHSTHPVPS
Experimental: (§1) The binding of antibodies obtained from the first and second immunization series (including 9C10, 20C6 and 16A8) were tested for binding to MICA-expressing CR1 transfectant cells C1R-MICA*001, C1R-MICA*004, C1R-MICA*007 and C1R-MICA*008 (Pr. A. Steinle, Eberhard-Karls University Tuebingen, Germany) described in Salih et al. (2003) Blood 102(4): […]. Binding was analyzed by flow cytometry.
(§2) Cells were harvested and stained in PBS 1×/BSA 0,2%/EDTA 2 mM buffer during 30 minutes at 4° C. using a dose-range of the anti-MICA mAbs. After two washes in staining buffer, cells were stained for 30 min at 4° C. with goat anti-mouse (H+L)-PE polyclonal antibodies (1/200). After two washes, stainings were acquired on a BD FACS Canto II and analyzed using the FlowJo software.

[3] = biological target: T3, MICA*008 expressed on C1R transfectant cells (human, UniProt Q29983 24-297, Glycosylated on cells; the letters do not carry this.); assay: flow cytometry, MFI against antibody concentration on C1R-MICA*08 cells
T3 construct: also called C1R-MICA*008; C1R-MICA*08
T3 chain: T2 chain with V122L, S175G, R181T, T213I, Q251R
Experimental: as §1, §2

[4] = biological target: T4, MICA*001 expressed on transfected cells (human); assay: flow cytometry on C1R-MICA*001 cells, 3-parameter logistic fit
T4 construct: the cells carry the complete allele; also called C1R-MICA*001; C1R-MICA*01
T4 chain: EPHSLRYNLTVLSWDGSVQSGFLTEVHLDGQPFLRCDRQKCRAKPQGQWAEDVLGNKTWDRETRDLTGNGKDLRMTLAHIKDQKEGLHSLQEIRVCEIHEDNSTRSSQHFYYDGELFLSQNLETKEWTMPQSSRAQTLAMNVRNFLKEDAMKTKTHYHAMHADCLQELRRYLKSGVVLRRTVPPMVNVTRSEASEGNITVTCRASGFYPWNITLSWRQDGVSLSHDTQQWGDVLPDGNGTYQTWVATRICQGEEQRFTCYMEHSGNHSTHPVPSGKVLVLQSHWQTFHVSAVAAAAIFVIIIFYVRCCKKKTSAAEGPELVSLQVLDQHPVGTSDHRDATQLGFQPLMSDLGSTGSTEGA
Experimental: as §1, §2
Antibodies 9C10, 20C6 and 16A8 bound to each of the C1R-MICA*001, C1R-MICA*004, C1R-MICA*007 and C1R-MICA*008 cells (see FIGS. 3A, 3B and 3C for antibodies 9C10, 20C6 and 16A8 respectively). […] EC50 values are shown in Table C in μg/ml (calculated using a 3-parameter logistic fit).

[5] = biological target: T4, MICA*001 expressed on transfected cells; assay: flow cytometry, MFI against antibody concentration on C1R-MICA*01 cells
Experimental: as §1, §2

- binding result [1]: no binding
- EC50 (read off the curve) [2]: ~0.2 mg/L
- EC50 (read off the curve) [3]: ~0.2 mg/L
- EC50 [4]: 3.15 mg/L
B1: antibody 9C10 (antibody, V domains shown)
VH: QVQLQQPGAELVRPGTSVNLSCKASGYSFTRYWMNWVKQRPGQGLEWIGMIHPSDSETRLNQKFKDKATLTVDKSSSTAYMQLSSPTSEDSAVYYCGYGNFFYVMDYWGQGTSVTVSS
VL: DILLTQSPAILSVSPGERVSFSCRASQSIGTSIHWYQQRTNGSPRLLIKFASESISGIPSRFSGSGSGTDFTLNINSVESEDIADYYCQQSNFWPFTFGSGTKLEVK
modifications: Biotinylated when captured in the SPR assays (9C10-Biot); the sites are not given.
notes: Murine hybridoma antibody of IgG2b isotype as tested; also called 9C10-Biot

- EC50 [4]: 1.18 mg/L
- EC50 (read off the curve) [5]: ~0.3 mg/L
B2: antibody 16A8 (antibody, V domains shown)
VH: EVQLVESGGGLVKPGGSLKLSCAASGFTFSRYAMSWVRQTPEKRLEWVATIFSGGSYTYYPDSVKGRFTISRDNANNTLYLQMSSLKAEDTAMYFCARPNWERTFDYWGQGTTLTVSS
VL: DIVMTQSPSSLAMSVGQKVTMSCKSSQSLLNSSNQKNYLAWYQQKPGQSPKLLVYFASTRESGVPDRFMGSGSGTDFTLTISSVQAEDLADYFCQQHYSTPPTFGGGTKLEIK
notes: Murine hybridoma antibody of IgG2a isotype as tested; also called 16A8-Biot
